The DeepSol protein solubility set

experiment: soluble on expression in E. coli; label from the status in PepcDB or PDB records

| Sequence | soluble on expression in E. coli |
| --- | --- |
| MRMENQKDLQENYLKVLERVELGSRVSGTVVNIMKDYVLVDIGYKSEGFIKIEEFENVPQVGDRLEAIVVRIGGELGLILSVEKLNSLNFQDKVYEYIQNKKIIKGKVLVELPNGYKIQINENVSGFMPFYLSSKSKDEKLKRGSVVEFYILEASEADGLRLILDRRTLEKERDLAKRIELVSSYNEEDVVDGVVERITEYGAIVKIKNFVTGILHKRNIAFNQVENVEDFVRVGDKLKLKIIKINPQTGKMELSLKALKANPWDSVDVKYKIDSIVKGKVVKILPFGAVIELDSELSGFLHISNFSWIRVVKSPQELIKLGQIVEVKILEIDKENQKISLGIKQINENPWERLTEKYPIGRVVQGVVTNITKTGAFVNIEEGIDAYVSKFDISWLEEIDPEEYFKIGDLVNGKVLEVDKRKRNVRLGIKQLEESPWEDFSKSYKKGDTIEVEIVEKKSKGFQVRVYNKIMGFISKIQLGDTKESSLETFEKLNVGDKLKVVITSIDSKDKSVLLSYREYENQRSREEISSYLFKGNDEESYKPFENLLKRDELEHHHHHH | soluble |
| MKNLEKCILCGSHNIVPHWKNVRSYNVSKCLDCSFLFLHEIIDDHELENYYSQSYFMASYAKTENNLIDAANNPKITAEAKEYANLIKLHHPEAHNVGEIGCSWGYLLYNLQNFGYSAKGFELSKTTAEMGSKQLGINITSGFFETQYNQFDVLILRHVLEHVPDPQDLLEKIYDSIKKDGLFILEGPNLDSISSRLFGKNVSWVSPPDHISFPNFISLIMACEKLGFTCIHKSSRRGRGISIFHQALLNSVGLMFGGKEKAKVNLGGINEKPNNQQLSSLKSAALKIVDFLDFLSSPMQPFLKQALLEEEMLIIFKKLEHHHHHH | not soluble |
| MNDATPDQLRTGPSRETPRFQQIVQDIKRRIADGSLSEHAALPSERRIAEETGISRMTARRALDALEAEGLVYSADRRGRFVSPKRVSYDVSNLVSFVADAESRGTALGIEVIRAQEGKADPALAARLELEPGAAIHEYTRLFRQDGHAIFVETEYVDARRCPDFLSHDLHQSTTRLLESQYDLVARTGDIVIRMRGAHPEETHLLGLAQSQSGIELTQVIRDASGRPFCFGRQFWRGEMAEFSARAIVGGSIHG | not soluble |
| MSDHPGPGAVTPELFGVGGDWLAVTAGESGASVFRAADATRYAKCVPAADAAGLEAERDRIAWLSGQGVPGPRVLDWYAGDAGACLVTRAVPGVPADRVGADDLRTAWGAVADAVRRLHEVPVASCPFRRGLDSVVDAARDVVARGAVHPEFLPVEQRLVPPAELLARLTGELARRRDQEAADTVVCHGDLCLPNIVLHPETLEVSGFIDLGRLGAADRHADLALLLANARETWVDEERARFADAAFAERYGIAPDPERLRFYLHLDPLTWG | not soluble |
| SKDLSVSLQANFTYNKNKMVYVDEPEYPTIWKSETGKPYSRITGYIAEGLFKSQEEIDNSPAQNLGSTPKVGDIKYRDLNGDGIIDSDDQTMISKYGSTPRLQYGFGGTVNYKKFDFGVFFSGSALRSIMTNGIDPFQEGIAVGNRNVLKYIADNYWSEEKQNWDAKYPRLGLLATDVANNTVNSSYWLRNGSFLRLKNVEVGYKIPYGRIFVSAANLFTFSPFDLWDPELSSWNSYPMQKTVNVGIQLQF | not soluble |
| MNIDTREITLEPADNARLLSLCGPFDDNIKQLERRLGIEINRRDNHFKLTGRPICVTAAADILRSLYVDTAPMRGQIQDIEPEQIHLAIKEARVLEQSAESVPEYGKAVNIKTKRGVIKPRTPNQAQYIANILDHDITFGVGPAGTGKTYLAVAAAVDALERQEIRRILLTRPAVEAGEKLGFLPGDLSQKVDPYLRPLYDALFEMLGFEKVEKLIERNVIEVAPLAYMRGRTLNDAFIILDESQNTTIEQMKMFLTRIGFNSKAVITGDVTQIDLPRNTKSGLRHAIEVLADVEEISFNFFHSEDVVRHPVVARIVNAYEAWEEAEQKRKAALAAERKREEQEQK | soluble |
| QLVIERVSLPNPGKEKMTQALLTYVRRQGLSSLNWTPAAESLLERIRCAVDWLPEQAWPMFDEASLLDSLDEWLEPYMTSVA | not soluble |
